B1: DNA-binding protein RAP1 (Saccharomyces cerevisiae), P11938 (parent)
chain: MSSPDDFETAPAEYVDALDPSMVVVDSGSAAVTAPSDSAAEVKANQNEENTGATAAETSEKVDQTEVEKKDDDDTTEVGVTTTTPSIADTAATANIASTSGASVTEPTTDDTAADEKKEQVSGPPLSNMKFYLNRDADAHDSLNDIDQLARLIRANGGEVLDSKPRESKENVFIVSPYNHTNLPTVTPTYIKACCQSNSLLNMENYLVPYDNFREVVDSRLQEESHSNGVDNSNSNSDNKDSIRPKTEIISTNTNGATEDSTSEKVMVDAEQQARLQEQAQLLRQHVSSTASITSGGHNDLVQIEQPQKDTSNNNNSNVNDEDNDLLTQDNNPQTADEGNASFQAQRSMISRGALPSHNKASFTDEEDEFILDVVRKNPTRRTTHTLYDEISHYVPNHTGNSIRHRFRVYLSKRLEYVYEVDKFGKLVRDDDGNLIKTKVLPPSIKRKFSADEDYTLAIAVKKQFYRDLFQIDPDTGRSLITDEDTPTAIARRNMTMDPNHVPGSEPNFAAYRTQSRRGPIAREFFKHFAEEHAAHTENAWRDRFRKFLLAYGIDDYISYYEAEKAQNREPEPMKNLTNRPKRPGVPTPGNYNSAAKRARNYSSQRNVQPTANAASANAAAAAAAAASNSYAIPENELLDEDTMNFISSLKNDLSNISNSLPFEYPHEIAEAIRSDFSNEDIYDNIDPDTISFPPKIATTDLFLPLFFHFGSTRQFMDKLHEVISGDYEPSQAEKLVQDLCDETGIRKNFSTSILTCLSGDLMVFPRYFLNMFKDNVNPPPNVPGIWTHDDDESLKSNDQEQIRKLVKKHGTGRMEMRKRFFEKDLL
B2: Telomere length regulator protein RIF1 (Saccharomyces cerevisiae), P29539 (parent)
chain: MSKDFSDKKKHTIDRIDQHILRRSQHDNYSNGSSPWMKTNLPPPSPQAHMHIQSDLSPTPKRRKLASSSDCENKQFDLSAINKNLYPEDTGSRLMQSLPELSASNSDNVSPVTKSVAFSDRIESSPIYRIPGSSPKPSPSSKPGKSILRNRLPSVRTVSDLSYNKLQYTQHKLHNGNIFTSPYKETRVNPRALEYWVSGEIHGLVDNESVSEFKEIIEGGLGILRQESEDYVARRFEVYATFNNIIPILTTKNVNEVDQKFNILIVNIESIIEICIPHLQIAQDTLLSSSEKKNPFVIRLYVQIVRFFSAIMSNFKIVKWLTKRPDLVNKLKVIYRWTTGALRNENSNKIIITAQVSFLRDEKFGTFFLSNEEIKPIISTFTEIMEINSHNLIYEKLLLIRGFLSKYPKLMIETVTSWLPGEVLPRIIIGDEIYSMKILITSIVVLLELLKKCLDFVDEHERIYQCIMLSPVCETIPEKFLSKLPLNSYDSANLDKVTIGHLLTQQIKNYIVVKNDNKIAMDLWLSMTGLLYDSGKRVYDLTSESNKVWFDLNNLCFINNHPKTRLMSIKVWRIITYCICTKISQKNQEGNKSLLSLLRTPFQMTLPYVNDPSAREGIIYHLLGVVYTAFTSNKNLSTDMFELFWDHLITPIYEDYVFKYDSIHLQNVLFTVLHLLIGGKNADVALERKYKKHIHPMSVIASEGVKLKDISSLPPQIIKREYDKIMKVVFQAVEVAISNVNLAHDLILTSLKHLPEDRKDQTHLESFSSLILKVTQNNKDTPIFRDFFGAVTSSFVYTFLDLFLRKNDSSLVNFNIQISKVGISQGNMTLDLLKDVIRKARNETSEFLIIEKFLELDDKKTEVYAQNWVGSTLLPPNISFREFQSLANIVNKVPNENSIENFLDLCLKLSFPVNLFTLLHVSMWSNNNFIYFIQSYVSKNENKLNVDLITLLKTSLPGNPELFSGLLPFLRRNKFMDILEYCIHSNPNLLNSIPDLNSDLLLKLLPRSRASYFAANIKLFKCSEQLTLVRWLLKGQQLEQLNQNFSEIENVLQNASDSELEKSEIIRELLHLAMANPIEPLFSGLLNFCIKNNMADHLDEFCGNMTSEVLFKISPELLLKLLTYKEKPNGKLLAAVIEKIENGDDDYILELLEKIIIQKEIQILEKLKEPLLVFFLNPVSSNMQKHKKSTNMLRELVLLYLTKPLSRSAAKKFFSMLISILPPNPNYQTIDMVNLLIDLIKSHNRKFKDKRTYNATLKTIGKWIQESGVVHQGDSSKEIEAIPDTKSMYIPCEGSENKLSNLQRKVDSQDIQVPATQGMKEPPSSIQISSQISAKDSDSISLKNTAIMNSSQQESHANRSRSIDDETLEEVDNESIREIDQQMKSTQLDKNVANHSNICSTKSDEVDVTELHESIDTQSSEVNAYQPIEVLTSELKAVTNRSIKTNPDHNVVNSDNPLKRPSKETPTSENKRSKGHETMVDVLVSEEQAVSPSSDVICTNIKSIANEESSLALRNSIKVETNCNENSLNVTLDLDQQTITKEDGKGQVEHVQRQENQESMNKINSKSFTQDNIAQYKSVKKARPNNEGENNDYACNVEQASPVRNEVPGDGIQIPSGTILLNSSKQTEKSKVDDLRSDEDEHGTVAQEKHQVGAINSRNKNNDRMDSTPIQGTEEESREVVMTEEGINVRLEDSGTCELNKNLKGPLKGDKDANINDDFVPVEENVRDEGFLKSMEHAVSKETGLEEQPEVADISVLPEIRIPIFNSLKMQGSKSQIKEKLKKRLQRNELMPPDSPPRMTENTNINAQNGLDTVPKTIGGKEKHHEIQLGQAHTEADGEPLLGGDGNEDATSREATPSLKVHFFSKKSRRLVARLRGFTPGDLNGISVEERRNLRIELLDFMMRLEYYSNRDNDMN
partner: B1 chain

Variants of: B1
Conditions: with rif1_yeast RIF1, P29539

effect of a mutation on the interaction	Variant
disrupting interaction strength	A733R
disrupting interaction strength	G760R

Variants of: B2
Conditions: with rap1_yeast RAP1, P11938

effect of a mutation on the interaction	Variant
disrupting interaction strength	I1764R
disrupting interaction strength	L1905R
disrupting interaction strength	I1760R
decreasing interaction strength	R1895E
disrupting interaction strength	I1762R

Variants of: B2
Conditions: with rap1_yeast RAP1, P11938
Remark: another data set of the same source

effect of a mutation on the interaction	Variant
decreasing interaction strength	L1905R

Reference: IntAct's records for PubMed 23746845
